The values that follow come from patent US8822640B2, “Tetrameric streptavidin mutein with reversible biotin binding capability” (UTI Limited Partnership, priority 2011, dated 2014).

By Kd is commonly meant the equilibrium constant for the complex coming apart.

Experiment [1] can be described thus: Biotin binding data taken from literature / U.S. Pat. No. 6,312,916 B1. Conditions: for t1/2, half-life of biotin in the SAV-biotin complex: estimated as 0.693/koff/60 from the cited koff.
For experiment [2] the following is noted: data from U.S. Pat. No. 6,312,916 B1, cited from earlier work.
Experiment [3] concerns biotinylated protein G and biotinylated IgG. In words: Mutein-agarose affinity matrix: purification of biotinylated proteins, matrix stability and reuse. The note with it: comparison of FIGS. 7 and 10. The protocol: Other methods. BIAcore biosensor for determining the kinetic parameters, preparation of streptavidin-agarose matrix and purification of biotinylated proteins were performed as previously described (Wu and Wong, 2005a; Wu and Wong, 2005b).
Stable subunit interactions in the 8-aa-loop-H127 mutein. The purified 8-aa-loop-H127C mutein can be immobilized to the agarose matrix with an estimated concentration of 3.8 mg/ml of settled agarose beads. […] Since it is likely that only one subunit in an tetrameric 8-aa-loop-H127C mutein was chemically coupled to the matrix (the other three subunits associated with the immobilized subunit via non-covalent interactions), this observation illustrates that the subunit interactions between the subunits in the tetrameric 8-aa-loop-H127C mutein were stable enough and the non-covalently associated subunits were not washed off from the column under the conditions used for the binding, washing and elution processes.
Application of the 8-aa-loop-H127C mutein-agarose matrices for purification of biotinylated protein G and biotinylated IgG. […] The bound biotinylated proteins could be eluted off from the column using 4 mM biotin (FIGS. 7 and 8).

B1: SAV mutein from Roche: commercially available streptavidin mutein with reversible biotin binding, changes S27R, S45R and L110W (U.S. Pat. No. 6,312,916 B1) (protein)
chain: AEAGITGTWYNQLGRTFIVTAGADGALTGTYERAVGNAESRYVLTGRYDSAPATDGSGTALGWTVAWKNNYRNAHSATTWSGQYVGGAEARINTQWLWTSGTTEANAWKSTLVGHDTFTKVKPSAAS
Regarding B1, in experiment [1], the “t1/2, half-life of biotin in the SAV-biotin complex” value is recorded as 1.96 min. In addition, the “t1/2, half-life of biotin in the SAV-biotin complex” value in experiment [1] (listed as Roche mutein) was 1.9 min. For the same molecule, the “biotin binding affinity lower than that of the 8-aa-loop-H127C mutein” value in experiment [1] (ratio of Kd values) is listed as ~10 fold. Also, in experiment [1] (ratio of t1/2 values), the “half-life of biotin in the SAV-biotin complex shorter than that of the 8-aa-loop-H127C mutein” value is given as ~14 fold. In experiment [2], the ka or kon is 45000 M⁻¹ s⁻¹ and the kd or koff is 0.0059 s⁻¹. The Kd in experiment [2] (read-out: Kd (biotin binding affinity)) was 130 nM. In addition, in experiment [3], the “binding capacity of the matrix for biotinylated protein G” value is listed as “significantly less than that of the 8-aa-loop-H127C mutein”.
